According to patent US20220411483A1 (Chugai, published 2022):
Numbering of substitutions follows the chain as printed. Blank lines part the entries; values can stand above or below the binder they belong to.

How the values were obtained:
[1] = molecular target: T1, FcγRIIa R type extracellular domain, His tag (human, UniProt P12318 34-217); assay: SPR, bound amount per captured antibody
T1 construct: extracellular domain; also called FcgRIIaR
T1 sequence (looked up): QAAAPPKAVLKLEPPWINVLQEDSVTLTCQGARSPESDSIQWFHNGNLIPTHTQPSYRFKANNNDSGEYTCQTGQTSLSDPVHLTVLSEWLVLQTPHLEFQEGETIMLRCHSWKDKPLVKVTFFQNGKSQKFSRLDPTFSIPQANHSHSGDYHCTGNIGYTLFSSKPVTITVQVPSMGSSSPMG

[2] = molecular target: T2, FcγRIIb extracellular domain, His tag (human, UniProt P31994 43-217); assay: SPR, bound amount per captured antibody
T2 construct: extracellular domain; also called FcgRIIb
T2 sequence (looked up): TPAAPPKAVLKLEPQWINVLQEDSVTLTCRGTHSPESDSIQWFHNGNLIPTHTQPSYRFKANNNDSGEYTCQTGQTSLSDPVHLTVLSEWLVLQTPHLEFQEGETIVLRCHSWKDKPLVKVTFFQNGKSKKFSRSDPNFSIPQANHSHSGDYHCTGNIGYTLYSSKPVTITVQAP

[3] = molecular target: T3, FcγRIa extracellular domain, His tag (human, UniProt P12314 16-292); assay: SPR, KD ratio
T3 construct: whole entry named; also called FcgRIa
T3 sequence (P12314 16-292): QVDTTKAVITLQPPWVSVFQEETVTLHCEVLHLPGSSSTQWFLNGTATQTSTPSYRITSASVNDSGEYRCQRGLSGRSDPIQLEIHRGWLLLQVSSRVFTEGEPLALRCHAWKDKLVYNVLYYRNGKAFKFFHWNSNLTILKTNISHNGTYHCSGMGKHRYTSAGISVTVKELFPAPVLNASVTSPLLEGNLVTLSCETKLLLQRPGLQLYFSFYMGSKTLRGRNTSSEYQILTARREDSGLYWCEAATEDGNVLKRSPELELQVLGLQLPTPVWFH

[4] = molecular target: T4, FcγRIIIa V type extracellular domain, His tag (human, UniProt P08637 17-208); assay: SPR, KD ratio
T4 construct: extracellular domain; also called FcgRIIIaV
T4 sequence (P08637 17-208 F176V): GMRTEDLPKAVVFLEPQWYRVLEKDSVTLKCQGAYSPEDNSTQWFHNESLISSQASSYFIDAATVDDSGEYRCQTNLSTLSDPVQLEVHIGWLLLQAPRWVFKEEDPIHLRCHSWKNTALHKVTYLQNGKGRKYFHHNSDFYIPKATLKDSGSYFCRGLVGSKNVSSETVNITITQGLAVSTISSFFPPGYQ

[5] = molecular target: T5, FcγRIIa H type extracellular domain, His tag (human, UniProt P12318 34-217); assay: SPR, KD ratio
T5 construct: extracellular domain; also called FcgRIIaH
T5 sequence (looked up): T1 sequence (looked up) with R134H

[6] = molecular target: T1, FcγRIIa R type extracellular domain, …; assay: SPR, KD ratio
[7] = molecular target: T2, FcγRIIb extracellular domain, His tag; assay: SPR, KD ratio
[8] = molecular target: T6, FcγRIa extracellular domain with C-terminal His tag (human, UniProt P12314 16-292); assay: SPR, antibody captured, FcgR analyte
T6 construct: also called FcgRIa; CD64; not shown: His tag at the C terminus
T6 sequence (P12314 16-292): as the sequence (P12314 16-292) above

[9] = molecular target: T7, FcγRIIa R type extracellular domain with C-terminal His tag (human, UniProt P12318 34-217); assay: SPR, antibody captured, FcgR analyte
T7 construct: extracellular domain; also called FcgRIIaR; not shown: His tag at the C terminus
T7 sequence (looked up): T1 sequence (looked up)

[10] = molecular target: T8, FcγRIIb extracellular domain with C-terminal His tag (human, UniProt P31994 43-217); assay: SPR, antibody captured, FcgR analyte
T8 construct: extracellular domain; also called FcgRIIb; not shown: His tag at the C terminus
T8 sequence (looked up): T2 sequence (looked up)

[11] = molecular target: T7, FcγRIIa R type extracellular domain …; assay: SPR; KD of IL6R-B3/IL6R-L divided by KD of variant
[12] = molecular target: T8, FcγRIIb extracellular domain with …; assay: SPR; KD of IL6R-B3/IL6R-L divided by KD of variant

- Relative FcgRIIaR-binding Activity [1]: 20 % of IL6R-G1d/IL6R-L
- Relative FcgRIIb-binding Activity [2]: 131 % of IL6R-G1d/IL6R-L
- Relative FcgRIa-binding Activity [3]: 0.0138 fold of IL6R-G1d/IL6R-L
- Relative FcgRIIIaV-binding Activity [4]: 0.008 fold of IL6R-G1d/IL6R-L
- Relative FcgRIIaH-binding Activity [5]: 0.011 fold of IL6R-G1d/IL6R-L
- Relative FcgRIIaR-binding Activity [6]: 0.034 fold of IL6R-G1d/IL6R-L
- Relative FcgRIIb-binding Activity [7]: 1.65 fold of IL6R-G1d/IL6R-L
B1: IL6R-P591/IL6R-L (antibody, human IgG1, kappa)
heavy: QVQLQESGPGLVKPSETLSLTCAVSGHSISHDHAWSWVRQPPGEGLEWIGFISYSGITNYNPSLQGRVTISRDNSKNTLYLQMNSLRAEDTAVYYCARSLARTTAMDYWGEGTLVTVSSASTKGPSVFPLAPSSKSTSGGTAALGCLVKDYFPEPVTVSWNSGALTSGVHTFPAVLQSSGLYSLSSVVTVPSSSLGTQTYICNVNHKPSNTKVDKKVEPKSCDKTHTCPPCPAPELLGGDSVMLFPPKPKDTLMISRTPEVTCVVVDVSHEDPEVKFNWYVDGVEVHNAKTKPREEQENSTYRVVSVLTVLHQDWLNGKEYKCKVSNKALPAPIEKTISKAKGQPREPQVYTLPPSRDELTKNQVSLTCLVKGFYPSDIAVEWESNGQPENNYKTTPPVLDSDGSFFLYSKLTVDKSRWQQGNVFSCSVMHEALHNHYTQKSLSLSP
light: not shown

- Relative FcgRIIaR-binding Activity [1]: 11.2 % of IL6R-G1d/IL6R-L
- Relative FcgRIIb-binding Activity [2]: 73.3 % of IL6R-G1d/IL6R-L
B6: IL6R-P662/IL6R-L (antibody, human IgG1, kappa)
heavy: B1 heavy with M243F, E298D, S300A, S326N
light: not shown

- Relative FcgRIIaR-binding Activity [1]: 10.1 % of IL6R-G1d/IL6R-L
- Relative FcgRIIb-binding Activity [2]: 79.7 % of IL6R-G1d/IL6R-L
B7: IL6R-P663/IL6R-L (antibody, human IgG1, kappa)
heavy: B1 heavy with M243F, E298D, S300A, A332H
light: not shown

- Relative FcgRIIaR-binding Activity [1]: 16.9 % of IL6R-G1d/IL6R-L
- Relative FcgRIIb-binding Activity [2]: 130 % of IL6R-G1d/IL6R-L
- Relative FcgRIa-binding Activity [3]: 0.015 fold of IL6R-G1d/IL6R-L
- Relative FcgRIIIaV-binding Activity [4]: 0.004 fold of IL6R-G1d/IL6R-L
- Relative FcgRIIaH-binding Activity [5]: 0.009 fold of IL6R-G1d/IL6R-L
- Relative FcgRIIaR-binding Activity [6]: 0.026 fold of IL6R-G1d/IL6R-L
- Relative FcgRIIb-binding Activity [7]: 1.9 fold of IL6R-G1d/IL6R-L
B9: IL6R-P603/IL6R-L (antibody, human IgG1, kappa)
heavy: B1 heavy with V325I
light: not shown

Further lines, the binder ahead of its results:

B2: IL6R-BP508/IL6R-L (antibody, human IgG1, kappa, name in EU numbering)
heavy: B1 heavy with E235D, G239D, M243F, V266I, S269A, H270E, P273G, E274P, E298D, K441E
light: not shown
notes: human IgG1
- Kd [8]: 1.4 nM
- Kd [9]: 540 nM
- Kd [10]: 21 nM
- Relative FcgRIIaR-binding Activity [11]: 2
- Relative FcgRIIb-binding Activity [12]: 149

B3: IL6R-BP505/IL6R-L (antibody, human IgG1, kappa, name in EU numbering)
heavy: B1 heavy with E235D, G239D, M243F, V266I, S269A, H270E, P273G, E274D, E298Y, K441E
light: not shown
notes: human IgG1
- Kd [8]: 1.1 nM
- Kd [9]: 430 nM
- Kd [10]: 21 nM
- Relative FcgRIIaR-binding Activity [11]: 2.5
- Relative FcgRIIb-binding Activity [12]: 144

B4: IL6R-BP562/IL6R-L (antibody, human IgG1, kappa, name in EU numbering)
heavy: B1 heavy with G239D, M243F, H270D, P273G, E274D, E298D, A332R, K441E
light: not shown
notes: human IgG1
- Kd [8]: 25 nM
- Kd [9]: 680 nM
- Kd [10]: 24 nM
- Relative FcgRIIaR-binding Activity [11]: 1.6
- Relative FcgRIIb-binding Activity [12]: 131

B5: IL6R-BP560/IL6R-L (antibody, human IgG1, kappa, name in EU numbering)
heavy: B1 heavy with M243F, S269G, H270E, P273G, E298D, A332R, K441E
light: not shown
notes: human IgG1
- Kd [8]: 5.6 nM
- Kd [9]: 4200 nM
- Kd [10]: 180 nM
- Relative FcgRIIaR-binding Activity [11]: 0.3
- Relative FcgRIIb-binding Activity [12]: 16.8

B8: IL6R-BP549/IL6R-L (antibody, human IgG1, kappa, name in EU numbering)
heavy: B1 heavy with G239D, M243F, S269G, H270E, P273G, E298Y, A332R, K441E
light: not shown
notes: human IgG1
- Kd [8]: 18 nM
- Kd [9]: 570 nM
- Kd [10]: 16 nM
- Relative FcgRIIaR-binding Activity [11]: 1.9
- Relative FcgRIIb-binding Activity [12]: 196

B10: IL6R-BP504/IL6R-L (antibody, human IgG1, kappa, name in EU numbering)
heavy: B1 heavy with E235D, G239D, M243F, V266I, S269A, H270E, P273G, E274P, E298Y, K441E
light: not shown
notes: human IgG1
- Kd [8]: 1.4 nM
- Kd [9]: 450 nM
- Kd [10]: 24 nM
- Relative FcgRIIaR-binding Activity [11]: 2.4
- Relative FcgRIIb-binding Activity [12]: 127

B11: IL6R-BP559/IL6R-L (antibody, human IgG1, kappa, name in EU numbering)
heavy: B1 heavy with M243F, V266I, S269A, H270E, P273G, E274D, E298D, K441E
light: not shown
notes: human IgG1
- Kd [8]: 1.1 nM
- Kd [9]: 1600 nM
- Kd [10]: 28 nM
- Relative FcgRIIaR-binding Activity [11]: 0.7
- Relative FcgRIIb-binding Activity [12]: 110
